Assay results as given in publication PMC9692295.

Tests used:
[1] = molecular target: Munia bornavirus 1 (MuBV-1) phosphoprotein oligomerisation domain (POD), residues 65 to 172 (munia bornavirus 1 (MuBV-1)); assay: SEC-SAXS
[2] = molecular target: Munia bornavirus 1 (MuBV-1) phosphoprotein oligomerisation domain (POD), residues 65 to 172 (munia bornavirus 1 (MuBV-1)); assay: crystal structure
[3] = molecular target: Gaboon viper virus 1 (GaVV-1) phosphoprotein oligomerisation domain (POD), residues 67 to 178 (Gaboon viper virus 1 (GaVV-1)); assay: SEC-SAXS
[4] = molecular target: Gaboon viper virus 1 (GaVV-1) phosphoprotein oligomerisation domain (POD), residues 67 to 178 (Gaboon viper virus 1 (GaVV-1)); assay: crystal structure

Substance | stoichiometry N [1] | stoichiometry N [2] | stoichiometry N [3] | stoichiometry N [4]
Munia bornavirus 1 (MuBV-1) phosphoprotein oligomerisation domain (POD), residues 65 to 172 (domain or fragment) | 4 | 4 |  | 
Gaboon viper virus 1 (GaVV-1) phosphoprotein oligomerisation domain (POD), residues 67 to 178 (domain or fragment) |  |  | 4 | 4
